Measured values taken from publication PMC5041490 (Nucleic Acids Research, 2016).
Positions count from the first letter of the chain named. Names may count otherwise.

B1: His-G5(1–739) W14A (domain or fragment)
chain: MGQEPRTLPPSPNAYCARCSDAVPGGLFGFAARTSVFLVRVGPGAGESPGTPPFRVIGELVGHTERVSGFTFSHHPGQYNLCATSSDDGTVKIWDVETKTVVTEHALHQHTISTLHWSPRVKDLIVSGDEKGVVFCYWFNRNDSQHLFIEPRTIFCLTCSPHHEDLVAIGYKDGIVVIIDISKKGEVIHRLRGHDDEIHSIAWCPLPGEDCLSINQEETSEEAEITNGNAVAQAPVTKGCYLATGSKDQTIRIWSCSRGRGVMILKLPFLKRRGGGIDPTVKERLWLTLHWPSNQPTQLVSSCFGGELLQWDLTQSWRRKYTLFSASSEGQNHSRIVFNLCPLQTEDDKQLLLSTSMDRDVKCWDIATLECSWTLPSLGGFAYSLAFSSVDIGSLAIGVGDGMIRVWNTLSIKNNYDVKNFWQGVKSKVTALCWHPTKEGCLAFGTDDGKVGLYDTYSNKPPQISSTYHKKTVYTLAWGPPVPPMSLGGEGDRPSLALYSCGGEGIVLQHNPWKLSGEAFDINKLIRDTNSIKYKLPVHTEISWKADGKIMALGNEDGSIEIFQIPNLKLICTIQQHHKLVNTISWHHEHGSQPELSYLMASGSNNAVIYVHNLKTVIESSPESPVTITEPYRTLSGHTAKITSVAWSPHHDGRLVSASYDGTAQVWDALREEPLCNFRGHRGRLLCVAWSPLDPDCIYSGADDFCVHKWLTSMQDHSRPPQGKKSIELEKKRLSQPKA
B2: His-G5(1–739) Y15A (domain or fragment)
chain: B1 chain with A14W, Y15A

Experiments:
[1] = target: GST-L4 (UniProt P36578 1-427); assay: pull-down
[2] = target: GST-L3 (UniProt P39023 1-403); assay: pull-down

Binder	binding result [1]	binding result [2]
B1	binds	binds
B2	binds	binds
